Reference: WO2012132067A1 (dated 2012)
Changes are numbered by the printed parent chain. Names may count otherwise.

How the values were obtained:
[1] = target: T1, soluble human IL-6 receptor (human, UniProt P08887 20-357); test: summary of the Biacore result of Reference Example 7, told in Reference Example 12
T1 construct: The stated range 1-357 is that of the expressed construct; also called hsIL-6R
T1 sequence: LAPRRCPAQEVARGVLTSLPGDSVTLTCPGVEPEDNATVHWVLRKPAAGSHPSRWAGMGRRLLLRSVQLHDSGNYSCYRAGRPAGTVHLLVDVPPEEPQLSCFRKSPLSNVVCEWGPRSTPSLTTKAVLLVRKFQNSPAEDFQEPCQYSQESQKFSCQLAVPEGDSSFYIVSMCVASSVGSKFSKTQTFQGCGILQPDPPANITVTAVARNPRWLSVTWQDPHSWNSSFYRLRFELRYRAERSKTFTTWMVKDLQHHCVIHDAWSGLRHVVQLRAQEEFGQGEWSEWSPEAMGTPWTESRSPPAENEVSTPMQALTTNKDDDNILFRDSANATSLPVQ

mouse FcγRIII [2] = target: T2, mouse FcγRIII (mouse, UniProt P08508 31-215); test: SPR (Biacore), antibody held on immobilised mouse FcRn, FcγR injected, pH 7.4, 25 C
T2 sequence (looked up): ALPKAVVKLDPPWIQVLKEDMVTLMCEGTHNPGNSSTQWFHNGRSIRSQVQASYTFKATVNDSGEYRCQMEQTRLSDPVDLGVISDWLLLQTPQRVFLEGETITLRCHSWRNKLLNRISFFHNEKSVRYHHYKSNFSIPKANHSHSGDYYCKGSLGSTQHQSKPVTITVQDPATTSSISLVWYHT

mouse FcγRI [3] = target: T3, mouse FcγRI (mouse, UniProt P26151 25-297); test: as above
T3 sequence (looked up): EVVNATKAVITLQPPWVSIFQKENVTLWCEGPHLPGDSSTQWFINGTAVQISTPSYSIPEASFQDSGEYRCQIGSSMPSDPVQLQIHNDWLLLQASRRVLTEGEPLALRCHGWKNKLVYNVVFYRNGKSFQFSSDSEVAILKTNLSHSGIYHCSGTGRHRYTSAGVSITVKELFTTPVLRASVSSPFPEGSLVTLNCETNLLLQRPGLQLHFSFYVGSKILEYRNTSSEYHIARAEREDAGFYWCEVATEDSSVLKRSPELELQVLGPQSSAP

mouse FcγRIIb [4] = target: T4, mouse FcγRIIb (mouse, UniProt P08101 30-210, limits assumed); test: as above
T4 sequence (looked up): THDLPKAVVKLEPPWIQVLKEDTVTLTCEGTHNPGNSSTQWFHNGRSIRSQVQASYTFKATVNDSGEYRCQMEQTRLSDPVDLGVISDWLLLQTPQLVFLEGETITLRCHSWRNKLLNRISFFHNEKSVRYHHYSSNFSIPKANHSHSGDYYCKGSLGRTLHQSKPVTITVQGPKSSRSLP

mouse FcγRIII [5] = target: T2, mouse FcγRIII; test: SPR (Biacore), antibody held on immobilised human FcRn, FcγR injected, pH 7.4, 25 C
mouse FcγRI [6] = target: T3, mouse FcγRI; test: as above
human FcγRIIb [7] = target: T5, human FcγRIIb (human, UniProt P31994 43-217, limits assumed); test: as above
T5 construct: also called hFcgRIIb
T5 sequence: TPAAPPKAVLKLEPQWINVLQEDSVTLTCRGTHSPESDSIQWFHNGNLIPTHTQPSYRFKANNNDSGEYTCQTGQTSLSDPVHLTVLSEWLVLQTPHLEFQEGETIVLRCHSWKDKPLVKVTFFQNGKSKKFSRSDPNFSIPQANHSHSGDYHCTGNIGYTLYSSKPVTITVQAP

human FcγRIa = target: T6, human FcγRIa (human, UniProt P12314 16-292, limits assumed); test: as above
T6 construct: also called hFcgRI; hFcγRIa
T6 sequence (P12314 16-292 limits assumed): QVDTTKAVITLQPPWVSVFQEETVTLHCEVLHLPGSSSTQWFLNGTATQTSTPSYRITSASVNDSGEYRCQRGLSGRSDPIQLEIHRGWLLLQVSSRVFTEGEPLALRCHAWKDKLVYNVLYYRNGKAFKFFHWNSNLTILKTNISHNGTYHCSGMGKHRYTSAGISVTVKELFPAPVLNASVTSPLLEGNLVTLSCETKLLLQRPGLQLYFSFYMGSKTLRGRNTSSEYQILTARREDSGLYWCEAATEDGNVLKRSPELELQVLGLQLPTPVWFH

mouse FcγRIIb [8] = target: T4, mouse FcγRIIb; test: as above
human FcRn [9] = target: T7, human FcRn (human, UniProt P55899 24-290; P61769 21-119, limits assumed); test: as above
T7 construct: also called hFcRn
T7 sequence (P55899 24-290 limits assumed, chain 1 of 2): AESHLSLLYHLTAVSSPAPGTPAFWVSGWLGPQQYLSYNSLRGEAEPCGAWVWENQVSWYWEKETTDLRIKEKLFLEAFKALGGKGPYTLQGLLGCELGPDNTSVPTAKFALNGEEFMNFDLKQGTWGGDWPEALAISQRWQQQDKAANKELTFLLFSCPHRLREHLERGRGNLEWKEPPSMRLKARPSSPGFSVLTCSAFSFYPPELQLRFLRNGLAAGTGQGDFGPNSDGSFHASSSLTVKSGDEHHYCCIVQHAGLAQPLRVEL
T7 sequence (P61769 21-119 limits assumed, chain 2 of 2): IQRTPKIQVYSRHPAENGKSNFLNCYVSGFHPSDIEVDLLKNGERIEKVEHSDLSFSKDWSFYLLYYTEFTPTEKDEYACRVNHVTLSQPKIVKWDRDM

human FcRn [10] = target: T7, human FcRn; test: Biacore, Protein L capture, human FcRn injected, pH 7.0 (Table 6 not given)
human FcRn [11] = target: T7, human FcRn; test: Biacore, human FcRn, pH 7.0 (Table 20 not given)
human FcγRIIb [12] = target: T5, human FcγRIIb; test: Biacore T100, Protein L capture, FcγR injected, pH 7.4, 25 C (Table 19 not given)
human FcγRIIa(R) = target: T8, human FcγRIIa(R) (human, UniProt P12318 36-217); test: Biacore T100, Protein A capture, 25 C; against IgG1 (IL6R-G1d); the Japanese text says improved 522-fold
T8 construct: also called hFcgRIIa(R); FcγRIIa R type
T8 chain: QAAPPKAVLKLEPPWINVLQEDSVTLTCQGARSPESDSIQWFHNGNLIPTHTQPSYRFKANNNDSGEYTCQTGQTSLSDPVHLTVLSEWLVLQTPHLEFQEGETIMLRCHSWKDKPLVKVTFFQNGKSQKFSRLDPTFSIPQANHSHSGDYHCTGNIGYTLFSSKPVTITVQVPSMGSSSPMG

human FcγRIIb [13] = target: T5, human FcγRIIb; test: Biacore T100, Protein A capture, 25 C; against IgG1 (IL6R-G1d)
human FcγRIIa(H) = target: T9, human FcγRIIa(H) (human, UniProt P12318 36-217); test: as above
T9 construct: also called hFcgRIIa(H); FcγRIIa H type
T9 sequence: T8 chain with R133H

B1: FH4-IgG1 (antibody, V domains shown)
VH: QVQLVQSGAEVKKPGSSVKVSCKASGGTFSSYAISWVRQAPGQGLEWMGGIIPIFGTANYAQKFQGRVTITADESTSTAYMELSSLRSEDTAVYYCARERDYYDSSGYYDAFDIWGQGTMVTVSS
VL: ETTVTQSPSFLSASVGDRVTITCITTTDIDDDMNWFQQEPGKAPKLLISEGNILRPGVPSRFSSSGYGTDFTLTISKLQPEDFATYYCLQSDNLPFTFGQGTKLEIKR
notes: Ca-dependent anti-human IL-6 receptor antibody from a naive human phage library
Ca-dependence of binding (fold) [1]: ≥ 100 fold

B2: 6RL#9-IgG1 (antibody, V domains shown, not shown: a dimerising Fc or GST)
VH: QVQLVQSGAEVKKPGASVKVSCKASGYTFTSYYMHWVRQAPGQGLEWMGIINPSGGSTSYAQKFQGRVTMTRDTSTSTVYMELSSLRSEDTAVYYCARDDPGGGEYYFDYWGQGTLVTVSS
VL: QSVLTQPPSVSGAPGQRVTISCTGSRSNMGAGYDVHWYQLLPGAAPKLLISHNTHRPSGVPDRFSGSKSGASASLAITGLQAEDEADYYCQSHDSSLSAVVFGGGTKLTVLS
notes: Ca-dependent anti-human IL-6 receptor antibody from a naive human phage library; also called 6RL#9 antibody
Ca-dependence of binding (fold) [1]: ≥ 100 fold

B3: mPM1-mIgG1-mF3 (antibody)
heavy: DVQLQESGPVLVKPSQSLSLTCTVTGYSITSDHAWSWIRQFPGNKLEWMGYISYSGITTYNPSLKSRISITRDTSKNQFFLQLNSVTTGDTSTYYCARSLARTTAMDYWGQGTSVTVSSAKTTPPSVYPLAPGSAAQTNSMVTLGCLVKGYFPEPVTVTWNSGSLSSGVHTFPAVLQSDLYTLSSSVTVPSSTWPSETVTCNVAHPASSTKVDKKIVPRDCGCKPCICTVPEVSSVFIFPPKPKDVLYITLEPKVTCVVVDISKDDPEVQFSWFVDDVEVHTAQTQPREEQFNSTFRSVSELPIMHQDWLNGKEFKCRVNSAAFPAPIEKTISKTKGRPKAPQVYTIPPPKEQMAKDKVSLTCMITDFFPEDITVEWQWNGQPAENYKNTQPIMDTDGSYFVYSKLNVQKSNWEAGNTFTCSVLHEGLKFHHTEKSLSHSPGK
light: DIQMTQTTSSLSASLGDRVTISCRASQDISSYLNWYQQKPDGTIKLLIYYTSRLHSGVPSRFSGSGSGTDYSLTINNLEQEDIATYFCQQGNTLPYTFGGGTKLEIKRADAAPTVSIFPPSSEQLTSGGASVVCFLNNFYPKDINVKWKIDGSERQNGVLNSWTDQDSKDSTYSMSSTLTLTKDEYERHNSYTCEATHKTSTSPIVKSFNRNEC
notes: Mouse IgG1 anti-human IL-6R antibody of mPM1H-mIgG1-mF3 and mPM1L-mk1; copies: 2 + 2
binding result (mouse FcγRIII [2]): binds
binding result (mouse FcγRI [3]): no binding
binding result (mouse FcγRIIb [4]): binds

B4: Fv4-IgG1-F157 (antibody)
heavy: QVQLQESGPGLVKPSETLSLTCAVSGHSISHDHAWSWVRQPPGEGLEWIGFISYSGITNYNPSLQGRVTISRDNSKNTLYLQMNSLRAEDTAVYYCARSLARTTAMDYWGEGTLVTVSSASTKGPSVFPLAPSSKSTSGGTAALGCLVKDYFPEPVTVSWNSGALTSGVHTFPAVLQSSGLYSLSSVVTVPSSSLGTQTYICNVNHKPSNTKVDKKVEPKSCDKTHTCPPCPAPELLGGPSVFLFPPKPKDTLMISRTAEVTCVVVDVSHEDPEVKFNWYVDGVEVHNAKTKPREEQYNSTYRVVSVLTPLHQDWLNGKEYKCKVSNKALPAPIEKTISKAKGQPREPQVYTLPPSRDELTKNQVSLTCLVKGFYPSDIAVEWESNGQPENNYKTTPPVLDSDGSFFLYSKLTVDKSRWQQGNVFSCSVLHEALHYHYTQKSLSLSP
light: DIQMTQSPSSLSASVGDSVTITCQASTDISSHLNWYQQKPGKAPELLIYYGSHLLSGVPSRFSGSGSGTDFTFTISSLEAEDAATYYCGQGNRLPYTFGQGTKVEIERTVAAPSVFIFPPSDEQLKSGTASVVCLLNNFYPREAKVQWKVDNALQSGNSQESVTEQDSKDSTYSLSSTLTLSKADYEKHKVYACEVTHQGLSSPVTKSFNRGEC
notes: VH3-IgG1-F157 with VL3-CK; copies: 2 + 2
binding result (mouse FcγRIII [5]): binds
binding result (mouse FcγRI [6]): binds
binding result (human FcγRIIb [7]): binds
binding result (human FcγRIa): binds
binding result (mouse FcγRIIb [8]): binds
binding result (human FcRn [9]): binds

B5: VH3/L(WT)-IgG1-F21 (antibody)
heavy: B4 heavy with M254Y, A259P, L430M
light: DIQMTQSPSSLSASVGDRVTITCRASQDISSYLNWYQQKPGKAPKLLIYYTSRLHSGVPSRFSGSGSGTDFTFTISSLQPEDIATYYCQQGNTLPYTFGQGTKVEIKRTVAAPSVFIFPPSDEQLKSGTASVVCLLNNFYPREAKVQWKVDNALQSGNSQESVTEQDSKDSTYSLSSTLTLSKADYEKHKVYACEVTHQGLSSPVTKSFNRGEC
notes: Measured with light chain L(WT)-CK; result sentences name it Fv4-IgG1-F21; also called Fv4-IgG1-F21; copies: 2 + 2
binding result (human FcRn [10]): binds

B6: VH3/L(WT)-IgG1-F652 (antibody)
heavy: B4 heavy with P240D, M254Y, A259P, P310V, L430M
light: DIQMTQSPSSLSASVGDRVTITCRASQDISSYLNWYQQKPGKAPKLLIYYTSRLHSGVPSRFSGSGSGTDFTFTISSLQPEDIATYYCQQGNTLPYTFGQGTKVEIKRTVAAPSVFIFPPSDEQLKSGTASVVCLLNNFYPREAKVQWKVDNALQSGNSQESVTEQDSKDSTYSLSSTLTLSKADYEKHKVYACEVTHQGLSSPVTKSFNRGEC
notes: VH3-IgG1-F11 with P238D (EU); copies: 2 + 2
binding result (human FcRn [11]): binds
binding result (human FcγRIIb [12]): binds

B7: Fv4-IgG1-F20 (antibody)
heavy: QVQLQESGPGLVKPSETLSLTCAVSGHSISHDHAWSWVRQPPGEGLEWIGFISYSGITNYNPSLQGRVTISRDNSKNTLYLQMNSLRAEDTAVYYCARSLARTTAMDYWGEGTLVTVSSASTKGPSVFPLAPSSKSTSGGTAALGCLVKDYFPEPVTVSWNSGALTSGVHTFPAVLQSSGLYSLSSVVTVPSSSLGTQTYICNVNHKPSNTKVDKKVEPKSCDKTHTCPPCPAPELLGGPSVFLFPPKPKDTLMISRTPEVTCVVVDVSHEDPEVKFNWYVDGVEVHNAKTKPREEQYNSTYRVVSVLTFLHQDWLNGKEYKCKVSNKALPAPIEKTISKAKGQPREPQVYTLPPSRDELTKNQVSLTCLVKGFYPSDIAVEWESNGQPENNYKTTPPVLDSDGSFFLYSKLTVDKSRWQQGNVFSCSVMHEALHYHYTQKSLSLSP
light: B4 light
notes: VH3-IgG1-F20 with VL3-CK; copies: 2 + 2
binding result (mouse FcγRIII [2]): binds
binding result (mouse FcγRI [3]): binds
binding result (mouse FcγRIIb [4]): binds

B8: VH3/L(WT)-IgG1-F157 (antibody)
heavy: B4 heavy
light: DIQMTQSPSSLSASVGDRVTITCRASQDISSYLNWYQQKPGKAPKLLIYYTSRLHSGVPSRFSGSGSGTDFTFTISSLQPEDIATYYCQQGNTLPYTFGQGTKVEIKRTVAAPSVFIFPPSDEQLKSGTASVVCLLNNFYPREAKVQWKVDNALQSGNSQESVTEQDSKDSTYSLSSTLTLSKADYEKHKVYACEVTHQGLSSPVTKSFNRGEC
notes: also called Fv4-IgG1-F157 (name in result sentence); copies: 2 + 2
binding result (human FcRn [10]): binds

B9: IgG1-v3 (IL6R-G1d_v3/IL6R-L) (antibody)
heavy: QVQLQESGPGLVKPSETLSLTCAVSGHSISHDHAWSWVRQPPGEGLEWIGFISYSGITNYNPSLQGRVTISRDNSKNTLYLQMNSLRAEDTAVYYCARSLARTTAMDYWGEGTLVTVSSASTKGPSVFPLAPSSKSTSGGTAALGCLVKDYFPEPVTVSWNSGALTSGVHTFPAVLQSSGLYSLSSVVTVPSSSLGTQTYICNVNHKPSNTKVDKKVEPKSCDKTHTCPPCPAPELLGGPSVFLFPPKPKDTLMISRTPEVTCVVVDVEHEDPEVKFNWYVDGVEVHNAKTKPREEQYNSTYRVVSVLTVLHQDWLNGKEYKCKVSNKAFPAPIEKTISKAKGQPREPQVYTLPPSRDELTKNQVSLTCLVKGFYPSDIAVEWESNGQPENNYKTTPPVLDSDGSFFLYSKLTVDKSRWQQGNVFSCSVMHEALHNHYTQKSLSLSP
light: DIQMTQSPSSLSASVGDRVTITCRASQDISSYLNWYQQKPGKAPKLLIYYTSRLHSGVPSRFSGSGSGTDFTFTISSLQPEDIATYYCQQGNTLPYTFGQGTKVEIK
notes: IL6R-G1d with S267E/L328F (EU), known mutation used for comparison; copies: 2 + 2
relative KD (KD of IgG1 divided by KD of the variant) (human FcγRIIa(R)): 522 fold
relative KD (KD of IgG1 divided by KD of the variant) (human FcγRIIb [13]): 408 fold
relative KD (KD of IgG1 divided by KD of the variant) (human FcγRIIa(H)): 0.51 fold
